By Kd is commonly meant the equilibrium constant for the complex coming apart.

No end group written: not given here.

The text below walks through data of publication PMC3265570 (Nature structural & molecular biology, 2011).

The target in the assay is full-length Crk-II (SH2-nSH3-cSH3) (UniProt Q64010-1 1-304). In words: other fluorescence titration.
Sequence of full-length Crk-II (SH2-nSH3-cSH3) (Q64010 whole entry): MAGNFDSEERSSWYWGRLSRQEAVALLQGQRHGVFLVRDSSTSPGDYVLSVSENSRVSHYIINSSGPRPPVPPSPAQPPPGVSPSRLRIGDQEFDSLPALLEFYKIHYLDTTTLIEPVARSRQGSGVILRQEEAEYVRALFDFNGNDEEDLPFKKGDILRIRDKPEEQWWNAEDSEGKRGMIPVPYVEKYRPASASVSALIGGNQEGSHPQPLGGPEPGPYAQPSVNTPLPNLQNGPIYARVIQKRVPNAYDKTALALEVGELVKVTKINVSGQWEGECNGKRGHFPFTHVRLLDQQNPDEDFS

HPPPPLPPKRRK(fluorescein)G-NH2 [fluorescein-labeled C3G-derived ligand] came in with a Kd of 286 ± 19 nM.
